From patent publication US20260055188A1

Biological target: Human-TNFR2-His (manufacturer: SINO, CAT: 10417-H08H) (human) (UniProt P20333)
Test: flow cytometry, bridging: CHOK1-18.2 cells (human Claudin18.2) + 150 nM isotype control + human TNFR2-His, anti-His FITC detection; irrelevant antibody (blank 13476)

Question: Which E1 Mean FITC-A does the source give for “Human IgG1 kappa Isotype control (Sino Biological, Cat. No.: HG1K) (antibody)” here?
Answer: The E1 Mean FITC-A was 14400.
